Test results reported in US20240261333A1 (published 2024).
Each block holds one binder with its values, some of them ahead of it.

Experiments:
[1] = molecular target: T1, HNRNPM (human, UniProt P52272 2-730); experiment: co-IP with anti-FLAG, C-FLAG B3GNT2, mass spectrometry
T1 construct: also called NP_005959.2 (+1)
T1 sequence (looked up): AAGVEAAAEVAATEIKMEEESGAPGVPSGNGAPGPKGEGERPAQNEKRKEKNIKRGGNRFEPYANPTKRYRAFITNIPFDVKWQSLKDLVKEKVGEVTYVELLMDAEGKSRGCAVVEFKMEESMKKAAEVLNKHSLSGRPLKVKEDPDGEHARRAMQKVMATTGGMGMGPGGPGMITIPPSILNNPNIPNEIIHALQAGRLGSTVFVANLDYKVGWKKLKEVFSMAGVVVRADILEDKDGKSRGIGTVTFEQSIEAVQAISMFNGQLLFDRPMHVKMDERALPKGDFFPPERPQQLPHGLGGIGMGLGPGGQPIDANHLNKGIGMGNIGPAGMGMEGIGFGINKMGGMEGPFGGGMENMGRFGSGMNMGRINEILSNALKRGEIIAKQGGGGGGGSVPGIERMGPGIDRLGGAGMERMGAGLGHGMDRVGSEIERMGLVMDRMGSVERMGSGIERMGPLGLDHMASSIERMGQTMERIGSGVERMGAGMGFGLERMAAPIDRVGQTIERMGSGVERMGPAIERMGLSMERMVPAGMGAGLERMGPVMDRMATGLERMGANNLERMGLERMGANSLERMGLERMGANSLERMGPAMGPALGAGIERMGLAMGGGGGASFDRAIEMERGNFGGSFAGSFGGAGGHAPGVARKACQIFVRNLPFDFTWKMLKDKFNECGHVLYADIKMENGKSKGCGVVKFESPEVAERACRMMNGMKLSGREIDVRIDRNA
Procedure: Cells were plated in 10-cm cell culture dishes and grown to 60-80% confluency. For each condition, two biological replicates were harvested for co-IP. Cells were washed with PBS and 4 mL of lysis buffer (20 mM HEPES, 1% Triton X-100, 150 mM NaCl, 1 mM EDTA, and 10% glycerol) containing protease inhibitor cocktail was added. Cells were scraped and lysate was incubated at 4° C. under rotary agitation for 1 h. Lysate was centrifuged at 14,000×g for 10 min at 4° C. Supernatant was transferred to a new tube and an aliquot was taken as the input. […] For Western blots, 10 μg/mL Chicken Anti-FLAG (Aves labs ET-DY100) and IgY control (R&D Systems AB-101-C) antibodies were biotinylated (Thermo Fisher Scientific 90407) and added to the respective conditions. Lysates with antibodies were incubated at 4° C. under rotary agitation overnight. For each mL of lysate, 50 μL of Pierce Protein A/G Magnetic Beads (Mass spectrometry; Thermo Fisher Scientific 88803) or Pierce Streptavidin Magnetic Beads (Western blot; Thermo Fisher Scientific 88817) was washed twice with lysis buffer. Lysates with antibodies were added to the beads and incubated at 4° C. under rotary agitation for 4 h. Beads were washed with lysis buffer 3 times and resuspended in lysis buffer for storage.
Magnetic beads were resuspended in 100 mM Tris pH 7.8, reduced, alkylated and digested with trypsin at 37° ° C. overnight. This solution was subjected to solid phase extraction to concentrate the peptides and remove unwanted reagents followed by injection onto a Shimadzu HPLC with fraction collector. Eight fractions were collected and after concentration were injected on a Waters NanoAcquity HPLC equipped with a self-packed Aeris 3 μm C18 analytical column 0.075 mm by 20 cm, (Phenomenex). Peptides were eluted using standard reverse-phase gradients. The effluent from the column was analyzed using a Thermo Orbitrap Elite mass spectrometer (nanospray configuration) operated in a data dependent manner for 54 minutes. The resulting fragmentation spectra were correlated against the known database using Proteome Discover 1.4 (Thermo Fisher Scientific).

[2] = molecular target: T2, UBAP2L (human, UniProt Q14157 1-1087); experiment: co-IP, anti-FLAG, lysate of cells with C-FLAG B3GNT2; mass spectrometry
T2 construct: also called NP_055662.3 (+3)
T2 sequence (looked up): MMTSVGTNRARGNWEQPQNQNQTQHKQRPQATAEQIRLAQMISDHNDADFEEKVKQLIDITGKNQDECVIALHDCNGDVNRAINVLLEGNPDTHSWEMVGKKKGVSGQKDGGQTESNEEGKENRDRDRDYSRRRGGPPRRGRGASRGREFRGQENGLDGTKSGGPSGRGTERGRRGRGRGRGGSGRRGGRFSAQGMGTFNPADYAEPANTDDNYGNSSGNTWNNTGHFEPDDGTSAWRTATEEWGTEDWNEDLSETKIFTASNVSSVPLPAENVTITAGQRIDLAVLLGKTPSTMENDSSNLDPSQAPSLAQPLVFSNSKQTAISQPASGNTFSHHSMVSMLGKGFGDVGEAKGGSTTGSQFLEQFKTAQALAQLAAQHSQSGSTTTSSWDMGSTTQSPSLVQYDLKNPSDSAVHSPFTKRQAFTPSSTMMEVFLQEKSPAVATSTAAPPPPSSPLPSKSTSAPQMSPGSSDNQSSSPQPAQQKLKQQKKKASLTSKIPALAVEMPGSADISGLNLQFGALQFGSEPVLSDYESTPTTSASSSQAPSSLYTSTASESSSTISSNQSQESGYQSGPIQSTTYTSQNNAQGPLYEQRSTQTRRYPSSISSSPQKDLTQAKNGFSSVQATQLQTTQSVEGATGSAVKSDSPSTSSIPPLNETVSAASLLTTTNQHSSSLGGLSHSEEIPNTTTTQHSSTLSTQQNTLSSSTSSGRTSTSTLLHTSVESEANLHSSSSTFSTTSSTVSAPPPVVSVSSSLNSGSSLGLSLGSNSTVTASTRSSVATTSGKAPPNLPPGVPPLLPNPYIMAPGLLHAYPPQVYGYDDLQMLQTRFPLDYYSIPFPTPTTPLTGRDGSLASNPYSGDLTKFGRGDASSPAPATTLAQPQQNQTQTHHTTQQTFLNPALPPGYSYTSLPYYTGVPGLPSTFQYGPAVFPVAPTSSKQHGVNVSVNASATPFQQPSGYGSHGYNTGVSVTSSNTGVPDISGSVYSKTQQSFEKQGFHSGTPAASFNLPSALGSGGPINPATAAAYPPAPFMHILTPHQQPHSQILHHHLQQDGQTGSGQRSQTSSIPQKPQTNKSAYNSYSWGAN

co-IP mass spectrometry count [1]: 8
B1: C-terminal FLAG tagged B3GNT2 (enzyme, human, UniProt Q9NY97 1-397, looked up)
chain: MSVGRRRIKLLGILMMANVFIYFIMEVSKSSSQEKNGKGEVIIPKEKFWKISTPPEAYWNREQEKLNRQYNPILSMLTNQTGEAGRLSNISHLNYCEPDLRVTSVVTGFNNLPDRFKDFLLYLRCRNYSLLIDQPDKCAKKPFLLLAIKSLTPHFARRQAIRESWGQESNAGNQTVVRVFLLGQTPPEDNHPDLSDMLKFESEKHQDILMWNYRDTFFNLSLKEVLFLRWVSTSCPDTEFVFKGDDDVFVNTHHILNYLNSLSKTKAKDLFIGDVIHNAGPHRDKKLKYYIPEVVYSGLYPPYAGGGGFLYSGHLALRLYHITDQVHLYPIDDVYTGMCLQKLGLVPEKHKGFRTFDIEEKNKNNICSYVDLMLVHSRKPQEMIDIWSQLQSAHLKC
notes: FLAG-tagged ORF overexpressed in cells; pulled down from lysate with mouse anti-FLAG; also called C-FLAG B3GNT2; C-term flag; not shown: C-terminal FLAG tag

co-IP mass spectrometry count [2]: 19
B2: C-terminal FLAG tagged B3GNT2 (enzyme, human, UniProt Q9NY97 1-397, looked up)
chain: B1 chain
notes: Overexpressed in cells and pulled down from the lysate with mouse anti-FLAG antibody; also called C-FLAG B3GNT2; C-term flag; not shown: C-terminal FLAG tag
